{"source": "patent US12049482B2", "about": "“Molecular switch-mediated control of engineered cells” (THE GENERAL HOSPITAL CORPORATION, priority 2017, dated 2024)", "molecules": {"B1": {"name": "minCRBN3: All CRBN sequence other than amino acids 194-207 (deletion of the DDB1-binding domain), SEQ ID NO: 3 (protein)", "chain": "AGEGDQQDAAHNMGNHLPLLPESEEEDEMEVEDQDSKEAKKPNIINFDTSLPTSHTYLGADMEEFHGRTLHDDDSCQVIPVLPQVMMILIPGQTLPLQLFHPQEVSMVRNLIQKDRTFAVLAYSNVQEREAQFGTTAEIYAYREEQDFGIEIVKVKAIGRQRFKVLELRTQSDGIQQAKVQILPECVLPSTYDAETLMDRIKKQLREWDENLKDDSLPSNPIDFSYRVAACLPIDDVLRIQLLKIGSAIQRLRCELDIMNKCTSLCCKQCQETEITTKNEIFSLSLCGPMAAYVNPHGYVHETLTVYKACNLNLIGRPSTEHSWFPGYAWTVAQCKICASHIGWKFTATKKDMSPQKFWGLTRSALLPTIPDTEDEISPDKVILCL"}}, "key": {"[1]": {"tested_on": "CRBN", "test": "Internalization and degradation of CD28-degron-GFP in 293T cells", "type": "cell-based, human", "conditions": "10 μM pomalidomide, 293T cells with biallelic CRBN exon 5 disruption", "protocol": "Transduced cells were incubated with a range of Pomalidomide concentrations or DMSO for 20 hours. Cells were analyzed by flow cytometry for eGFP and mCherry fluorescence. 1000 mCherry+ cells were analyzed per sample, and the geometric mean of the per-cell eGFP/mCherry ratio was calculated in Flowjo. In Pomalidomide dose titration studies, the EC50 was calculated by non-linear regression in Prism. Experiments were performed in triplicate. In some cases cell surface protein expression was assayed in parallel with the above reporter assay; cells were stained with anti-CD28-BV421 antibody (BD Biosciences 562613) at a 1:50 dilution in FACS buffer (PBS+2% FCS+2 mM EDTA) for 10 minutes on ice. Cells were washed with FACS buffer and analyzed by flow cytometry."}, "[2]": {"molecular_target": "CRBN (Homo sapiens, UniProt Q96SW2)", "sequence (Q96SW2 whole entry)": "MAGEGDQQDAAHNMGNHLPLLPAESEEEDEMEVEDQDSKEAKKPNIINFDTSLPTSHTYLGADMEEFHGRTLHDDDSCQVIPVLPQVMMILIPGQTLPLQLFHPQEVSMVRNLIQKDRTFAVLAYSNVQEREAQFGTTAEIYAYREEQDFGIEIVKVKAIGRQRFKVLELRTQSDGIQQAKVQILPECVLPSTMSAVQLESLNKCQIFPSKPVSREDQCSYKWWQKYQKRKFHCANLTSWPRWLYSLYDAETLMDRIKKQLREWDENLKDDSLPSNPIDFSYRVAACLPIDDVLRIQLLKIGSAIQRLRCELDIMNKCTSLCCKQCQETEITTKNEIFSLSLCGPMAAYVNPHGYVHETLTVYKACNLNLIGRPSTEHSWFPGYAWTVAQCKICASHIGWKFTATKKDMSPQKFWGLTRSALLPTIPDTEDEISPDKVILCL", "test": "EGFP/mCherry reporter of zinc finger degron sequences, IMiD titration", "type": "cell-based", "parameters": "endogenous in cells", "conditions": "HEK239T cells, drug titration, 20 h", "protocol": "A hybrid sequence of two distinct CRBN substrates, IKZF3 and ZFP91, was constructed and examined for activity within an “OFF-switch” system of the instant disclosure. In such experiments, reporter constructs containing zinc finger sequences were expressed in HEK239T cells via lentiviral transduction, after which the cells were treated with a titration of (IMiD) drug concentrations for 20 h. Flow cytometry was used to measure the EGFP/mCherry ratio normalized to the average of three DMSO treated controls. Data shown in FIG. 10 are representative of two experimental replicates (technical replicates=0, experimental replications=2)."}, "[3]": {"tested_on": "IKZF3aa130-189", "sequence (Q9UKT9 130-189 limits assumed, one chain of several)": "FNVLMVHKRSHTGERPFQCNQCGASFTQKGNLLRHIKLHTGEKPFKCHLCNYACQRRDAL", "test": "BRET assay, dimerization of IKZF3aa130-189 with CRBN or minCRBN variants", "type": "cell-based, human", "conditions": "pomalidomide dose-response", "protocol": "Specifically, CRBN deletion variants were engineered to retain binding to Pom/IKZF3 but not DDB1/CUL4. Four deletion variants were generated in CRBN that removed the DDB1-binding domain, as shown in the middle image (NTD is the N-terminal domain; LLP1 is Lon-like protease domain 1 (split into LLP1-N and LLP1-C regions); TBD is the Thalidomide binding domain). At middle, BRET assays were performed upon 293T cells harboring bialleleic CRISPR/Cas9 disruption of endogenous CRBN (293T-CRBNΔe5), to assess dimerization between IKZF3aa130-189 and CRBN or minCRBN variants (dose-response data shown are CRBN, minCRBN1, minCRBN2, minCRBN3 and minCRBN4). […] Pomalidomide-dependent dimerization was observed between IKZF3aa130-189-HaloTag and CRBN-Nanoluciferase (NLuc) or minCRBN2-4-NLuc. […] 1 day after transfection, cells were exposed to 1 μM pomalidomide for the number of hours indicated and GFP and mCherry fluorescence was measured by flow cytometry (eGFPmCherry levels were detected as 0.5 or less for the CRBN trace).\n(§1) 293T cells were co-transfected with pFC14K and pFC32K plasmids expressing IKZF3-HaloTag and CRBN-Nanoluciferase fusion proteins and incubated overnight. Cells were then trypsinized and seeded into 96 well plates, at 40,000 cells per well. The BRET assay was performed per manufacturer's instructions (Promega™). In brief, cells were incubated for 2 hours with varying concentrations of Pomalidomide or DMSO, 10 μM MG132, and 100 nM HaloTag NanoBRET 618 Ligand. NanoBRET Nano-Glo substrate was added and donor (460 nm) and acceptor (618 nm) emission were measured within 10 minutes (EnVision, Perkin Elmer). Mean corrected milliBRET units (mBU) was calculated.\nTested forms of minimal CRBN included minCRBN1, minCRBN2, minCRBN3 and minCRBN4, each of which were aligned against the wild-type CRBN (FIG. 1; all tested minCRBNs lacked the DDB1-binding domain—minCRBN1 comprised amino acids 339-442 of CRBN (including the TBD); minCRBN2 comprised amino acids 317-442 of CRBN (including TBD and an N-terminal extended sequence relative to minCRBN1); minCRBN3 included all CRBN sequence other than amino acids 194-207 (deletion of the DDB1-binding domain); and minCRBN4 included all sequences other than amino acids 187-260 (deletion of the DDB1-binding domain))."}, "[4]": {"tested_on": "CD19scFv-CD28-IKZF3", "sequence (as listed by the source, one chain of several)": "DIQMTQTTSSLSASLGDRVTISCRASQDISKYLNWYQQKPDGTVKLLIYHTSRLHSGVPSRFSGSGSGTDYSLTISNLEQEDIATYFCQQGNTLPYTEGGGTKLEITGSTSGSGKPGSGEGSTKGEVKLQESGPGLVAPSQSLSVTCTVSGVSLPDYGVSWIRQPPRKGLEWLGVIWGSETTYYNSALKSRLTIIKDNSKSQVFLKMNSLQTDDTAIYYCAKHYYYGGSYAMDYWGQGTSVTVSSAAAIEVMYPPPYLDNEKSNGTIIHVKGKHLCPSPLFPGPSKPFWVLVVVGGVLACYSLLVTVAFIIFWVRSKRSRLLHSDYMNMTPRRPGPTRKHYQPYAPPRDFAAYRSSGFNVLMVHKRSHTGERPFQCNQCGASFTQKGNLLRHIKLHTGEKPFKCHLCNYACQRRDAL", "test": "BRET, split receptor: membrane-tethered or untethered minCRBN3 paired with CD19scFv-CD28-IKZF3", "type": "cell-based, human", "conditions": "293T cells, 10 μM MG132, 2 hours of drug treatment", "protocol": "as §1\nSpecific minCRBN-presenting polypeptide tethers to the plasma membrane that were tested included: (1) a CD8/CD28 system in which about 36 amino acids of TMD and cytosolic sequence connected to the co-stimulatory/minCRBN domains of the thereby membrane-tethered polypeptide; (2) a PD1 Y F ITAM/ITSM construct, in which minCRBN was tethered to the plasma membrane via a TMD and cytosolic domain of approximately 100 amino acids in length; and (3) a LYN-CD28 construct, in which membrane tethering was achieved via myristoyl/palmitoylation."}}, "data": [{"molecule": "CD28-degron: In frame fusion of full length CD28, a SG linker, and IKZF3 (amino acids 130-189); SEQ ID NO: 82", "values": [{"measurement": "degradation (normalized GFP levels)", "setting": "[1]", "result": "no significant decline in normalized GFP levels"}]}, {"molecule": "IKZF3/ZFP91: Reverse hybrid, IKZF3 amino acids 146-156 + ZFP91 amino acids 411-422, SEQ ID NO: 33 (FQCNQCGASFTQKASLNWHMKKH)", "values": [{"measurement": "IMiD sensitivity (EGFP/mCherry ratio normalized to DMSO)", "setting": "[2]", "result": "minimal IMiD sensitivity/responsiveness"}]}, {"molecule": "ZFP91/IKZF3 hybrid: ZFP91 amino acids 400-410 + IKZF3 amino acids 157-168, SEQ ID NO: 32 (LQCEICGFTCRQKGNLLRHIKLH)", "values": [{"measurement": "IMiD sensitivity (EGFP/mCherry ratio normalized to DMSO)", "setting": "[2]", "result": "greater IMiD sensitivity than either the ZFP91 degron sequence alone or the IKZF3 degron sequence alone"}]}, {"molecule": "B1", "values": [{"measurement": "pomalidomide-dependent dimerization with IKZF3 degron (mBU)", "setting": "[3]", "result": "pomalidomide-dependent interactions"}, {"measurement": "pomalidomide-dependent interaction with IKZF3 degron split receptor (BRET)", "setting": "[4]", "result": "to a significantly lesser extent than any of the various plasma membrane-tethered versions"}]}]}
